From the supplement of paper PMC10567573

B1: PTPRD (parent)
chain: PVVSMDLDPQPITDEEEGLIWVVG
B2: C9orf9 (parent)
chain: TKHKCRQLTKASLKPRGCSKPPWR

Variants of: B1
Assay: protein stability index of a GFP-peptide fusion (GPS, HEK-293T) (PSI 1-6); higher = more stable
Conditions: c terminus: a fixed tail appended
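Further: lentivirally expressed fusions sorted by FACS into six bins by GFP to DsRed ratio, PSI derived from sequencing read proportions per bin multiplied by bin number.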

Compared with L19T, L19V is lower in protein stability index: 4.91 for the first, 3.56 for the second.

First: L19W
Second: I20D
The protein stability index of the first is lower: 3.37 for the first, 4.8 for the second.

Compared with I20E, I20G is lower in protein stability index: 5.35 for the first, 4.92 for the second.

First: I20H
Second: I20K
The protein stability index of the first is lower: 4.32 for the first, 4.64 for the second.

First: I20L
Second: I20N
The protein stability index of the first is lower: 2.99 for the first, 4.31 for the second.

Going from I20P to I20Q, the protein stability index falls from 5.16 to 4.95.

Going from I20S to I20V, the protein stability index rises from 4.64 to 4.87.

Going from W21A to W21C, the protein stability index falls from 6 to 4.69.

Going from W21D to W21F, the protein stability index falls from 5.06 to 4.08.

Compared with W21H, W21I is lower in protein stability index: 5.47 for the first, 3.62 for the second.

Going from W21L to W21Q, the protein stability index rises from 3.33 to 5.18.

First: W21S
Second: W21T
The protein stability index of the first is higher: 5.43 for the first, 4.69 for the second.

Compared with W21V, W21Y is lower in protein stability index: 4.27 for the first, 4.1 for the second.

Compared with V22C, V22D is higher in protein stability index: 3.9 for the first, 5.28 for the second.

Compared with V22E, V22F is lower in protein stability index: 5.47 for the first, 2.54 for the second.

First: V22G
Second: V22H
The protein stability index of the first is higher: 4.92 for the first, 4.85 for the second.

Going from V22K to V22L, the protein stability index falls from 4.57 to 3.94.

First: V22N
Second: V22Q
The protein stability index of the first is lower: 4.37 for the first, 4.63 for the second.

Going from V22R to V22S, the protein stability index rises from 3.89 to 4.7.

First: V22T
Second: V22W
The protein stability index of the first is higher: 4.26 for the first, 3.79 for the second.

Going from V22Y to V23A, the protein stability index falls from 5.12 to 4.67.

First: V23C
Second: V23D
The protein stability index of the first is lower: 3.9 for the first, 5.36 for the second.

First: V23G
Second: V23H
The protein stability index of the first is higher: 5.27 for the first, 4.93 for the second.

Going from V23L to V23M, the protein stability index rises from 3.06 to 4.55.

Going from V23N to V23P, the protein stability index rises from 4.45 to 4.97.

Compared with V23R, V23S is lower in protein stability index: 5.03 for the first, 5.01 for the second.

Going from V23T to V23Y, the protein stability index falls from 4.93 to 4.4.

First: G24C
Second: G24D
The protein stability index of the first is lower: 1.85 for the first, 4.45 for the second.

Going from G24E to G24F, the protein stability index falls from 3.77 to 1.34.

Compared with G24H, G24I is lower in protein stability index: 3.87 for the first, 1.54 for the second.

Compared with G24K, G24L is lower in protein stability index: 4.06 for the first, 1.51 for the second.

Compared with G24M, G24N is higher in protein stability index: 2.87 for the first, 4.15 for the second.

Going from G24Q to G24S, the protein stability index falls from 3.55 to 3.36.

Going from G24T to G24V, the protein stability index falls from 3.21 to 1.7.

First: G24W
Second: G24Y
The protein stability index of the first is lower: 1.41 for the first, 3.09 for the second.

Variants of: B2
Assay: as above
Conditions: c terminus: a fixed tail appended

First: T1A
Second: T1C
The protein stability index of the first is higher: 3.08 for the first, 2.45 for the second.

First: T1D
Second: T1E
The protein stability index of the first is higher: 3.22 for the first, 2.52 for the second.

Compared with T1F, T1G is lower in protein stability index: 3.6 for the first, 3.17 for the second.

Going from T1I to T1K, the protein stability index rises from 2.59 to 2.62.

Going from T1L to T1M, the protein stability index rises from 2.44 to 2.64.

Going from T1N to T1P, the protein stability index falls from 3.18 to 3.06.

Compared with T1Q, T1R is higher in protein stability index: 2.46 for the first, 3.56 for the second.

Compared with T1S, T1W is lower in protein stability index: 2.96 for the first, 1.77 for the second.

Compared with T1Y, K2A is lower in protein stability index: 2.09 for the first, 1.36 for the second.

Going from K2C to K2D, the protein stability index rises from 2.68 to 3.81.

Compared with K2G, K2I is lower in protein stability index: 3.88 for the first, 1.64 for the second.

First: K2M
Second: K2N
The protein stability index of the first is lower: 2.16 for the first, 2.78 for the second.

First: K2P
Second: K2S
The protein stability index of the first is higher: 4.64 for the first, 4.18 for the second.

Going from K2T to K2W, the protein stability index rises from 2.27 to 2.57.

First: K2Y
Second: H3C
The protein stability index of the first is higher: 2.1 for the first, 1.44 for the second.

First: H3D
Second: H3E
The protein stability index of the first is higher: 3.12 for the first, 2.77 for the second.

First: H3F
Second: H3K
The protein stability index of the first is lower: 2.27 for the first, 3.09 for the second.

First: H3P
Second: H3R
The protein stability index of the first is lower: 3.03 for the first, 3.11 for the second.

Going from H3S to H3T, the protein stability index falls from 3.02 to 2.83.

First: H3W
Second: H3Y
The protein stability index of the first is lower: 2.42 for the first, 3.08 for the second.

First: K4A
Second: K4C
The protein stability index of the first is higher: 2.94 for the first, 1.91 for the second.

Going from K4F to K4G, the protein stability index rises from 1.82 to 2.83.

Going from K4H to K4I, the protein stability index falls from 2.66 to 1.99.

First: K4L
Second: K4M
The protein stability index of the first is lower: 1.72 for the first, 2.15 for the second.

Compared with K4N, K4P is lower in protein stability index: 2.78 for the first, 2.21 for the second.

Compared with K4Q, K4R is lower in protein stability index: 2.88 for the first, 2.45 for the second.

First: K4S
Second: K4T
The protein stability index of the first is higher: 2.9 for the first, 2.67 for the second.

First: K4V
Second: K4Y
The protein stability index of the first is higher: 2.25 for the first, 1.95 for the second.

Compared with C5A, C5D is higher in protein stability index: 3.24 for the first, 3.56 for the second.

First: C5E
Second: C5F
The protein stability index of the first is higher: 3.12 for the first, 2.4 for the second.

Going from C5G to C5H, the protein stability index rises from 2.21 to 2.44.

Compared with C5K, C5L is lower in protein stability index: 3.65 for the first, 2.2 for the second.

Going from C5M to C5N, the protein stability index rises from 1.84 to 2.15.

First: C5Q
Second: C5R
The protein stability index of the first is lower: 3.33 for the first, 3.76 for the second.

Compared with C5S, C5T is lower in protein stability index: 2.87 for the first, 2.24 for the second.

Compared with C5V, C5W is lower in protein stability index: 2.88 for the first, 2.17 for the second.

Going from C5Y to R6C, the protein stability index falls from 2.88 to 2.6.

Compared with R6D, R6E is higher in protein stability index: 3.03 for the first, 3.17 for the second.

Compared with R6G, R6H is higher in protein stability index: 3.22 for the first, 3.25 for the second.

Going from R6I to R6K, the protein stability index rises from 1.86 to 2.76.

Compared with R6L, R6M is lower in protein stability index: 2.56 for the first, 2.19 for the second.

Going from R6N to R6P, the protein stability index falls from 2.78 to 1.91.

Going from R6Q to R6S, the protein stability index falls from 3.1 to 2.59.

First: R6T
Second: R6V
The protein stability index of the first is lower: 2.4 for the first, 2.84 for the second.

First: R6W
Second: R6Y
The protein stability index of the first is lower: 2.46 for the first, 3.72 for the second.

Compared with Q7A, Q7C is lower in protein stability index: 2.96 for the first, 2.17 for the second.

Going from Q7D to Q7E, the protein stability index falls from 4.68 to 2.73.

Going from Q7F to Q7G, the protein stability index rises from 1.63 to 2.75.

Q7H gave a protein stability index of 2.5.
